Residue numbers refer to the chain shown, from its start.

The text below walks through data of patent US20220204583A1 (WISCONSIN ALUMNI RESEARCH FOUNDATION, published 2022).

Experiment in all cases: competition of live bEnd.3 (MBEC) cell surface binding by excess recombinant receptor ectodomain
Assay [1] concerns the target T1, recombinant low-density lipoprotein receptor ectodomain (UniProt P35951 22-790, limits assumed).
T1 construct: extracellular domain; Bought; also called rLDLR; LDLR
The protocol: (§1) Competition assay. 2 μM recombinant receptor ecto-domain proteins, rIR (R&D systems, 7544-MR), rLDLR (R&D systems, 2255-LD), and rTfR (Sino Biologics, 50741-M07H) were incubated with 200 nM VLR-Fc proteins in serum-free complete growth media for 30 minutes and then applied to serum-starved bEnd.3 cells in 96-well plates to allow for VLR-Fc binding to cell surface receptors. Plates were incubated at 4° C. for 2 hours. After extensive washing with ice cold PBS cells were fixed with 2% PFA, permeabilized, labeled with IRDye reagents, and analyzed as described above.

For assay [2], the target named is T2, recombinant transferrin receptor ectodomain (UniProt Q62351 89-763, limits assumed).
T2 construct: extracellular domain; Bought; also called rTfR; TfR
The protocol:
as §1

Assay [3] deals with T3, recombinant insulin receptor ectodomain (UniProt P15208 28-946, limits assumed).
T3 construct: extracellular domain; Bought; The chain make-up (alpha/beta) is not described; also called rIR; IR
The protocol:
as §1

T1 sequence (P35951 22-790 limits assumed): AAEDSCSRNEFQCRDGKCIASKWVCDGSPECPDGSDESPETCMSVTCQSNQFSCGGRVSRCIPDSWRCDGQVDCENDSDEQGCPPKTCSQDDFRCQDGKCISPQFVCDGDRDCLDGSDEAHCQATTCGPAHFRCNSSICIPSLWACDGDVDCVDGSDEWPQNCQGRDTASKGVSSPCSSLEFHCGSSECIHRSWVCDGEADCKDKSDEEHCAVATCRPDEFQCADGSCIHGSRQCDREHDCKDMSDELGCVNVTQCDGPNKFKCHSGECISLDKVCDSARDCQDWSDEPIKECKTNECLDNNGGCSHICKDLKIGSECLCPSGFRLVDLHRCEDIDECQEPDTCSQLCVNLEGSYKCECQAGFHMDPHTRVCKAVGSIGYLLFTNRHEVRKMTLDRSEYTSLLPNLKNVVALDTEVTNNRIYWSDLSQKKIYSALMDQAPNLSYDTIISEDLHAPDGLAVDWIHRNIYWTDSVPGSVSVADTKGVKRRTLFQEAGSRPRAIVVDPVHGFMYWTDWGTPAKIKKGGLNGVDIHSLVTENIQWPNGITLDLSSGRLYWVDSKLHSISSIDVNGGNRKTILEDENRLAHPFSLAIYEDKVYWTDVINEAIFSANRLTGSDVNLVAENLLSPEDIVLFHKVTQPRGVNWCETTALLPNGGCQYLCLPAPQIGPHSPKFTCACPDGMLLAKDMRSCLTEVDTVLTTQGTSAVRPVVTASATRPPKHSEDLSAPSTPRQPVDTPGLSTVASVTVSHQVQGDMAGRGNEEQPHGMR
T2 sequence (Q62351 89-763 limits assumed): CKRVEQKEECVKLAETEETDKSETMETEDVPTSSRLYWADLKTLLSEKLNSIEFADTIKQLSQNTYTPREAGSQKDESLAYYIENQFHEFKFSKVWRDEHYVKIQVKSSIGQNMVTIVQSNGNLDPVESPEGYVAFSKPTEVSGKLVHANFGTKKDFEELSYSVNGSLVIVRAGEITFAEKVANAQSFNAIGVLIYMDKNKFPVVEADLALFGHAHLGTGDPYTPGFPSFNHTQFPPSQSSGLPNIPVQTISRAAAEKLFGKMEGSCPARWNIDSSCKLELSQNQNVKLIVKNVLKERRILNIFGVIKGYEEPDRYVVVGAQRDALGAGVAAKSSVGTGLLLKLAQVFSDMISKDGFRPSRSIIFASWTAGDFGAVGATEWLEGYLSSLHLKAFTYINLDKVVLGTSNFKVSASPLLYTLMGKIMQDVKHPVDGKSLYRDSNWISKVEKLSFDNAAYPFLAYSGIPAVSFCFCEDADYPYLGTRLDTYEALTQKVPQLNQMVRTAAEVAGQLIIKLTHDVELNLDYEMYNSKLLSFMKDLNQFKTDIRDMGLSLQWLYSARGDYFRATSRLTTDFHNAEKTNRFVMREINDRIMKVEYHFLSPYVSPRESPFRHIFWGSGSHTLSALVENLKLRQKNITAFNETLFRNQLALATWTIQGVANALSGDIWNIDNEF
T3 sequence (P15208 28-946 limits assumed): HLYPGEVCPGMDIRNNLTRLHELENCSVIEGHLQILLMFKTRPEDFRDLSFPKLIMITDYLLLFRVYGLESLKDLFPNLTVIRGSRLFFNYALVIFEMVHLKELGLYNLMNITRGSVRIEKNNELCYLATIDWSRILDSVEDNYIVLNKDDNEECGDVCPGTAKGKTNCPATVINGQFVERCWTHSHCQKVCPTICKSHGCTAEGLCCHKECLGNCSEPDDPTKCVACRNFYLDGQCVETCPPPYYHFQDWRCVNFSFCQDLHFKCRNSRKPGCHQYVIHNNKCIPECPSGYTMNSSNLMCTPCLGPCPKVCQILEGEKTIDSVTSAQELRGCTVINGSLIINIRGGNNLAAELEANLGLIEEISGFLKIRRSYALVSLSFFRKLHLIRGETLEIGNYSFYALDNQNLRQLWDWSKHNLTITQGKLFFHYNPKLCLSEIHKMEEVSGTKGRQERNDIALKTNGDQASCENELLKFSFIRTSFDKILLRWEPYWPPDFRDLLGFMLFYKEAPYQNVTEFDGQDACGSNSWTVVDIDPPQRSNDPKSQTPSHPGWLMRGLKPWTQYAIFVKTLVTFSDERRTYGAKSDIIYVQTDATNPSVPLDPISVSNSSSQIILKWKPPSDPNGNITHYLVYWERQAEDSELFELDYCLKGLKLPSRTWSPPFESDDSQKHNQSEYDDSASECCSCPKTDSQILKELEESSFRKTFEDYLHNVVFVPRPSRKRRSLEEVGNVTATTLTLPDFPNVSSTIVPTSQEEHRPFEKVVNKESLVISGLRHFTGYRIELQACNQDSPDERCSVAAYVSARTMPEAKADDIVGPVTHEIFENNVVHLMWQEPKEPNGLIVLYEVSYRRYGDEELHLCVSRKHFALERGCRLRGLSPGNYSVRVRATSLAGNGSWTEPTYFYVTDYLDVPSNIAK

B1: VLR-Fc-46 (Fc fusion)
chain: ACPSQCSCSGTTVDCSGKSLASVPTGIPTTTRWLHLHRNQLTKLEPGVFDSLTQLTYLNLGGNQLTALPVGVFDKLTNLKELKLYSNQLQALSEGLFDRLGKLQHLDLSKNQLKSIPHGAFDRLSSLTHAYLFGNPWDCECRDIMYLRNWVADHTSIVMRWDGKAVNDPDSAKCAGTNTPVRAVTEASTSPSKCPGYVAT
notes: Dimeric recombinant VLR-rabbit IgG-Fc fusion secreted from HEK293F cells; also called VLR 46; VLR46; not shown: rabbit IgG-Fc from vector pIRES-VLR-Fc, C-terminal of the VLR
For the molecule B1, the binding result in assay [1] is “no binding (tested: 2 µM receptor ectodomain, 200 nM VLR-Fc)”; in assay [2], “no binding (tested: 2 µM receptor ectodomain, 200 nM VLR-Fc)”; in assay [3] it was “no binding (tested: 2 µM receptor ectodomain, 200 nM VLR-Fc)”.

B2: VLR-Fc-30 (Fc fusion)
chain: B1 chain with R32Q, W33I, H35R, H37Y, L41I
notes: Dimeric recombinant VLR-rabbit IgG-Fc fusion secreted from HEK293F cells; also called VLR 30; VLR30; not shown: rabbit IgG-Fc from vector pIRES-VLR-Fc, C-terminal of the VLR
For B2, the binding result is on record as “no binding (tested: 2 µM receptor ectodomain, 200 nM VLR-Fc)” in assay [1]; “no binding (tested: 2 µM receptor ectodomain, 200 nM VLR-Fc)” in assay [2]; “no binding (tested: 2 µM receptor ectodomain, 200 nM VLR-Fc)” in assay [3].

B3: VLR-Fc-11 (Fc fusion)
chain: B1 chain with T12E, D14R, S16E, G17S, K18R, T25A, W33R
notes: Dimeric recombinant VLR-rabbit IgG-Fc fusion secreted from HEK293F cells; also called VLR 11; VLR11; not shown: rabbit IgG-Fc from vector pIRES-VLR-Fc, C-terminal of the VLR
Consider B3, for which the binding result in assay [1] is recorded as “no binding (tested: 2 µM receptor ectodomain, 200 nM VLR-Fc)”; in assay [2], “no binding (tested: 2 µM receptor ectodomain, 200 nM VLR-Fc)”; in assay [3] it was “no binding (tested: 2 µM receptor ectodomain, 200 nM VLR-Fc)”.
